Results taken from the supplement of paper PMC9170038.

Tested on: MS2 coat protein
Test: apparent KD of MS2 coat protein; designed switch direction (-1 OFF switch, 1 ON switch): -1; higher = weaker reporter binding
How it was run: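 RNA switches sharing common flanks were transcribed by stalled E. coli RNA polymerase on Illumina chips. A doubling series of SNAP-549-labelled MS2 coat protein, from 0.7 or 1.5 nM to 3 µM, was applied in Tris-HCl pH 7.5 buffer with KCl, MgCl2, BSA, DTT, tRNA and Tween-20. Each step lasted 0.8–1.5 h at the bottom of the series and 10–20 min at the top. Normalised cluster fluorescence was curve-fitted, giving apparent KD as the per-design median over clusters.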

[1] = Eterna round: R95, input ligand: FMN 200 uM
[2] = Eterna round: R95, input ligand: microRNA oligo, concentration not stated
[3] = Eterna round: R95, input ligand: none
[4] = input ligand: microRNA oligo, concentration not stated

Sequence: AGAGUGAGAGGAUAUUGGAUUCCUAACAUGAGGAUCACCCAUGUAGUACGGUGCUACUGACAAGAAGGCUCACUCU [etrenacac ex5r4 #7] (Eterna round: R97, puzzle: Exclusion 5)
- apparent KD of MS2 coat protein (input ligand: FMN 200 uM): 54.5 nM
- apparent KD of MS2 coat protein (input ligand: none): 76.1 nM

Sequence: AGAGUGUGAGGAUAUAUGGUGAAGGUGAAGAGAGAGGAGGAGUAGAAGGUACAUGAGGAUCACCCAUGUUUGGA [JR_Exclu4_Sub075] (puzzle: Exclusion 4)
- apparent KD of MS2 coat protein [1]: 32.1 nM
- apparent KD of MS2 coat protein [2]: 33 nM
- apparent KD of MS2 coat protein [3]: 40.8 nM

Sequence: AGAUAGUGGUGAGGAUAUGAGAAUAGAAAGAAAUCAGAAGGCACACAUGAGGAUCACCCAUGUGAGUUCUUGAGAUUACAUGGU [Prohibition 42 - Jieux - Exclusion NG 1] (Eterna round: R96, puzzle: Exclusion NG 1)
- apparent KD of MS2 coat protein (input ligand: FMN 200 uM): 22.6 nM
- apparent KD of MS2 coat protein [4]: 11.3 nM
- apparent KD of MS2 coat protein (input ligand: none): 15.4 nM

Sequence: AGAUCACAUGAGGAUCACCCAUGUCAGGAUAUCAUCAUUGAAGCUGCGGCUUCAAUGAUGAGAAGGGACAUAAU [E1/2-B3] (Eterna round: R97, puzzle: Exclusion 1)
- apparent KD of MS2 coat protein (input ligand: FMN 200 uM): 105 nM
- apparent KD of MS2 coat protein (input ligand: none): 412 nM

Sequence: AGAUCACAUGAGGAUCACCCAUGUGAGGAUAUAGACUGAAGAGCUUCGGCUCUUCAGUCUAGAAGGCACUAUGA [EX1 #45] (Eterna round: R97, puzzle: Exclusion 1)
- apparent KD of MS2 coat protein (input ligand: FMN 200 uM): 28.9 nM
- apparent KD of MS2 coat protein (input ligand: none): 25.9 nM

Sequence: AGAUCUAGGACAGGAUAUACCGAUGGCUUCAUCGAAGAUGAAGCCAUCACAUGAGGAUCACCCAUGUAGAAGGGUCCUAGAUCA [Omei Exc(NG) 2Av9] (Eterna round: R96, puzzle: Exclusion NG 2)
- apparent KD of MS2 coat protein (input ligand: FMN 200 uM): 11.5 nM
- apparent KD of MS2 coat protein [4]: 9.95 nM
- apparent KD of MS2 coat protein (input ligand: none): 13.7 nM

Sequence: AGAUCUAGGACAGGAUAUAUGGAUGUCUUCAUCGAAGAUGAAGACAUUACAUGAGGAUCACCCAUGUAGAAGGGUCCUAGAUCA [Omei Exc(NG) 2Av3] (Eterna round: R96, puzzle: Exclusion NG 2)
- apparent KD of MS2 coat protein (input ligand: FMN 200 uM): 17.3 nM
- apparent KD of MS2 coat protein [4]: 17.5 nM
- apparent KD of MS2 coat protein (input ligand: none): 22.2 nM

Sequence: AGAUGGAUUGCUAGAAAACUAGUAAUUCAUCAAUCAAGCACAUGAGGAUCACCCAUGUCUUAGAGUACGUGAGUACA [JL gull wing 9] (Eterna round: R96, puzzle: Sensor v2, turn-off variant 2)
- apparent KD of MS2 coat protein (input ligand: FMN 200 uM): 12.8 nM
- apparent KD of MS2 coat protein [4]: 12.5 nM
- apparent KD of MS2 coat protein (input ligand: none): 16 nM

Sequence: AGAUGGCGAGGAUAUACAUGAGGAUCACCCAUGUGAGAGAUUAGAGUGAGGAAGAAAAGUAGAAGGCGCUGUCA [Mat - Exclusion 3 - Mod of Salish D18] (puzzle: Exclusion 3)
- apparent KD of MS2 coat protein [1]: 167 nM
- apparent KD of MS2 coat protein [2]: 98.4 nM
- apparent KD of MS2 coat protein [3]: 144 nM

Sequence: AGAUGUAGAUUCCGAUCCUACAUGAGGAUCACCCAUGUAGCUAGACGUGCGGGCGGCGCUCGUCGGACUACCAGUAG [salish99_TOv1_r3_096] (puzzle: Sensor v3, turn-off variant 1)
- apparent KD of MS2 coat protein [1]: 53.5 nM
- apparent KD of MS2 coat protein [2]: 69.8 nM
- apparent KD of MS2 coat protein [3]: 84.6 nM

Sequence: AGCAUGCUAGGAUAUACGGGACAUUAGGGUUCGUUGUGUGGACAUGAGGAUCACCCAUGUAGAAGGAGCGUGCA [Mat - Exclusion 2 - Mod of Hyphema - D91] (puzzle: Exclusion 2)
- apparent KD of MS2 coat protein [2]: 73.1 nM

Sequence: AGCCACAGAGGAUAUACAUACAUCCAGUAGUUGAGAAGACUACAUGAGGAUCACCCAUGUAGAAGGCUGUGGCA [Omei Ex2 BD B3] (Eterna round: R97, puzzle: Exclusion 2)
- apparent KD of MS2 coat protein (input ligand: FMN 200 uM): 95.5 nM
- apparent KD of MS2 coat protein (input ligand: none): 395 nM

Sequence: AGCCAGCUAGGAUAUUGCAGUUGUAACAUGAGGAUCACCCAUGUGAUAGGUGUUUAGCUCCAAGAAGGAGCGCGGC [Eronsoti] (puzzle: Exclusion 5)
- apparent KD of MS2 coat protein [1]: 88.7 nM
- apparent KD of MS2 coat protein [2]: 27.1 nM
- apparent KD of MS2 coat protein [3]: 28 nM

Sequence: AGCCAUGAAGGAUAUACAUGAGGAUCACCCAUGUUGCGGACAGGUUUGAUCGGCGUAGGUAGAAGGUCAAGUAG [Eternabot (L2) Solution 62] (Eterna round: R97, puzzle: Exclusion 3)
- apparent KD of MS2 coat protein (input ligand: FMN 200 uM): 28.2 nM
- apparent KD of MS2 coat protein (input ligand: none): 22.1 nM

Sequence: AGCCCUGCAGGAUAUGCCCGGGAUAACAUGAGGAUCACCCAUGUGACCGAUUGUUAUUCUGCAGAAGGGCAUGGGA [JL-EX5-4.17 ViennaUCT mod] (Eterna round: R97, puzzle: Exclusion 5)
- apparent KD of MS2 coat protein (input ligand: FMN 200 uM): 228 nM
- apparent KD of MS2 coat protein (input ligand: none): 235 nM

Sequence: AGCCCUGCAGGAUAUGCCCGGGAUAACAUGAGGAUCACCCAUGUGACCGGUUGUUAGACUGCAGAAGGGCAUGGGA [salish99_ex5_r4_302] (Eterna round: R97, puzzle: Exclusion 5)
- apparent KD of MS2 coat protein (input ligand: FMN 200 uM): 14.8 nM
- apparent KD of MS2 coat protein (input ligand: none): 12.2 nM

Sequence: AGCCCUUGUGUCAGGAUAUGCAUCCUUAAAGGACGGCAGAAGGGACAUGAGGAUCACCCAUGUAAAUAGAAAUU [Onatatge] (puzzle: Brourd's mod of Exclusion 4)
- apparent KD of MS2 coat protein [1]: 16.2 nM
- apparent KD of MS2 coat protein [2]: 84 nM
- apparent KD of MS2 coat protein [3]: 141 nM

Sequence: AGCCUCGCUGUUAGGAUAUGCAUGGAUAAGCUCCGGCAGAAGGGACAUGAGGAUCACCCAUGUAACGUAGUUUA [BmEX4 B.4] (Eterna round: R97, puzzle: Brourd's mod of Exclusion 4)
- apparent KD of MS2 coat protein (input ligand: FMN 200 uM): 31.8 nM
- apparent KD of MS2 coat protein (input ligand: none): 25.2 nM

Sequence: AGCGAGGAGACAGGAUAUGAGAAUAGAUAGAACUCAGAAGGGUCACAUGAGGAUCACCCAUGUAAAGUCUUGAGGCUGCGUGGU [Prohibition 8 - Jieux - Exclusion NG 1] (Eterna round: R96, puzzle: Exclusion NG 1)
- apparent KD of MS2 coat protein (input ligand: FMN 200 uM): 239 nM
- apparent KD of MS2 coat protein [4]: 84.3 nM
- apparent KD of MS2 coat protein (input ligand: none): 88.2 nM

Sequence: AGCGCCAUCGUGAGAUGGCGUAUUACAUGAGGAUCACCCAUGUAGGAUAUCGAUUGCUUUGCAGUCGAGAAGGACAUGUUCUUU [JL ENG3 3.80 Mod D] (Eterna round: R96, puzzle: Exclusion NG 3)
- apparent KD of MS2 coat protein (input ligand: FMN 200 uM): 27.1 nM
- apparent KD of MS2 coat protein [4]: 19.3 nM
- apparent KD of MS2 coat protein (input ligand: none): 23.4 nM

Sequence: AGCGCCAUCGUGAGAUGGCGUAUUACAUGAGGAUCACCCAUGUAGGAUAUCGAUUGCUUUGCAGUCGAGAAGGGCAUGUCCUAG [JL ENG3 3.80 Mod H] (Eterna round: R96, puzzle: Exclusion NG 3)
- apparent KD of MS2 coat protein [4]: 25 nM

Sequence: AGCGCUUACGUAGGAUAUGCAUGAGGAUCACCCAUGCAACCACAUUUAACAUGAGGAUCACCCAUGUAGAAGGACGGGUGCGCA [pwkr exNG2 2xF5 1xFMN.2] (Eterna round: R96, puzzle: Exclusion NG 2)
- apparent KD of MS2 coat protein (input ligand: FMN 200 uM): 67.8 nM
- apparent KD of MS2 coat protein [4]: 20.4 nM
- apparent KD of MS2 coat protein (input ligand: none): 27.9 nM

Sequence: AGCGUGGAGACAGGAUAUGAGAAUAGAUAGAACUCAGAAGGGUCACAUGAGGAUCACCCAUGUAAAGUCUUGAGGAUGAGUGAU [Prohibition 4 - Jieux - Exclusion NG 1] (Eterna round: R96, puzzle: Exclusion NG 1)
- apparent KD of MS2 coat protein (input ligand: FMN 200 uM): 192 nM
- apparent KD of MS2 coat protein [4]: 57.7 nM
- apparent KD of MS2 coat protein (input ligand: none): 73.5 nM

Sequence: AGCUAGAUAGGAUAUGCCCGGGAUAACAUGAGGAUCACCCAUGUGGCCGAAUCAAGUCCAGCAGAAGGGUUUGGGA [Mod of ViennaUCT 11 - Jieux - Exclusion 5] (Eterna round: R97, puzzle: Exclusion 5)
- apparent KD of MS2 coat protein (input ligand: FMN 200 uM): 43.2 nM
- apparent KD of MS2 coat protein (input ligand: none): 34.8 nM

Sequence: AGCUAGGCAGGAUAUACAUGAGGAUCACCCAUGUAAAUUUUUCGUUUAACUUGAAUGUGUAGAAGGGCCAUAAA [Ex3 #51] (Eterna round: R97, puzzle: Exclusion 3)
- apparent KD of MS2 coat protein (input ligand: FMN 200 uM): 23.9 nM
- apparent KD of MS2 coat protein (input ligand: none): 22.4 nM

Sequence: AGCUGACAAGGAUAUACAUGAGGAUCACCCAUGUUGGUCAAGCGACGAUAGUCGCAAUGUAGAAGGUGUCAGCU [E3/8-C1] (Eterna round: R97, puzzle: Exclusion 3)
- apparent KD of MS2 coat protein (input ligand: FMN 200 uM): 1750 nM
- apparent KD of MS2 coat protein (input ligand: none): 341 nM

Sequence: AGCUGGAGAGGAUAUACGUAGGAAAAAAAAGUCUGAUCACUACAUGAGGAUCACCCAUGUAGAAGGCUCUGGCA [Ex2 Design 162: Sub-opt 26] (Eterna round: R96, puzzle: Exclusion 2)
- apparent KD of MS2 coat protein (input ligand: FMN 200 uM): 104 nM
- apparent KD of MS2 coat protein [4]: 16.5 nM
- apparent KD of MS2 coat protein (input ligand: none): 20.5 nM

Sequence: AGCUGUGGCCGAGGAUAUACACAUGAGGAUCACCCAUGUAGGCGCGGAUACGCGCUAAAAUAAAUGUAGAAGGCGGUCUCAGCA [Eli eng2 - 055] (Eterna round: R96, puzzle: Exclusion NG 2)
- apparent KD of MS2 coat protein (input ligand: FMN 200 uM): 7.06 nM
- apparent KD of MS2 coat protein [4]: 5 nM
- apparent KD of MS2 coat protein (input ligand: none): 11.8 nM

Sequence: AGCUGUGGCCGAGGAUAUCACAUGAGGAUCACCCAUGUACAUGAUUAGGCCUGGUAACAGGCUCGUGAGAAGGCGGUCUCAGCA [Eli eng2 - 010] (Eterna round: R96, puzzle: Exclusion NG 2)
- apparent KD of MS2 coat protein (input ligand: FMN 200 uM): 26.7 nM
- apparent KD of MS2 coat protein [4]: 31.1 nM
- apparent KD of MS2 coat protein (input ligand: none): 37.6 nM

Sequence: AGCUGUGGCCGAGGAUAUCACGAACCAUGGAAAACCAUGGAACUCACACAUGAGGAUCACCCAUGUGAGAAGGCGGUCUCAGCA [Eli eng2 - 021] (Eterna round: R96, puzzle: Exclusion NG 2)
- apparent KD of MS2 coat protein (input ligand: FMN 200 uM): 16.3 nM
- apparent KD of MS2 coat protein [4]: 8.68 nM
- apparent KD of MS2 coat protein (input ligand: none): 15.1 nM

Sequence: AGCUGUGGCCGAGGAUAUCUAAAACCUCAAAACGAAAUAUAAUCGAACAUGAGGAUCACCCAUGUAGAGAAGGCGGUCUCAGCA [Eli eng2 - 031] (Eterna round: R96, puzzle: Exclusion NG 2)
- apparent KD of MS2 coat protein [4]: 214 nM

Sequence: AGCUGUGGCCGAGGAUAUCUACAUGAGGAUCACCCAUGUAAAGGGUGUAUCGGGAAAACCUCGAUGGAGAAGGCGGUCUCAGCA [Eli eng2 - 047] (Eterna round: R96, puzzle: Exclusion NG 2)
- apparent KD of MS2 coat protein (input ligand: FMN 200 uM): 95.5 nM
- apparent KD of MS2 coat protein [4]: 45.3 nM
- apparent KD of MS2 coat protein (input ligand: none): 296 nM
